Results published in patent US8349801B2, “Peptide ligands for G-protein coupled receptors” (priority 2006, dated 2013).
pEC50: −log10 of the molar value. Blank lines part the entries; values can stand above or below the substance they belong to. No end group written: not given here.

Columns and labels:
Mas receptor = biological target: T1, Mas receptor (Homo sapiens, UniProt P04201); assay: Calcium flux in CHO-K1 cells co-transfected with Mas receptor and Gα16; format: cell-based; conditions: for ability to induce calcium flux, P33 monomer, dimer and derivatives compared: 0.1, 1, 10, 100, 1000 and 10000 nM; for ability to induce calcium flux, P61-related peptides compared: dose response; for pEC50: doses 10-3000 nM, highest response not reached
T1 construct: expressed in transfected cells; host or cells: CHO-K1 (ATCC-CCL-61), transient co-transfection
T1 sequence (P04201 1-325): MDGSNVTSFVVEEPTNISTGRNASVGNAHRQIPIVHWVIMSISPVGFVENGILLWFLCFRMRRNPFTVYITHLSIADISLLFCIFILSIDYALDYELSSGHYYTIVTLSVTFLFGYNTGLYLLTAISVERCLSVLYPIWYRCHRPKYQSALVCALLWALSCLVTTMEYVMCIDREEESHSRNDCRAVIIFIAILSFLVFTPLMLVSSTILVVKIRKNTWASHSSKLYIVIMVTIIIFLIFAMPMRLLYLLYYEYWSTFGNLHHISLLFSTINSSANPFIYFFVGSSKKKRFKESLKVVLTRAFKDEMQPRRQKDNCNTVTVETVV
Method: (§1) The assay was carried out in CHO cells were transiently transfected with the GPCR of choice, by utilizing the promiscuous Gα16 to divert signaling to the Gq pathway, thus enabling readout of GPCR activation by testing for Calcium flux as described by Liu et al 2003 (Biomol Screen 8, 39-49).
(§2) All the peptides thus obtained were tested for their ability to change calcium flux in CHO—K1 cells (ATCC-CCL-61) transiently co-transfected with an expression vector containing the GPCR of choice and expression vector containing the Gα16 encoding cDNA. Expression constructs containing cDNA clones for MrgX1, MrgX2, Mas or FPRL1 were commercially obtained in one of the following expression vectors: pcDNA3.1, pCMV6, or MO2.
(§3) Transient transfections were performed using CHO—K1 cells as host cells. Cells (12 million) were plated into T75 flasks on the day preceding transfection. Cells were transfected with the appropriate GPCR expression vector and with a vector expressing Gα16 using a lipid-based reagent, MTI, according to the manufacturer's recommendation. Cells were transfected for 5 hours, then re-plated into 96-well dishes (60,000 cells per well) and grown overnight.
(§4) On the day of the experiment, cells were loaded with Fluo4-NW (Invitrogen) according to the manufacturer's recommendation. Plates were loaded into a FlexStation™ (Molecular Devices) plate reader and fluorescence was monitored. Seventeen seconds following initiation of reading, cells were stimulated with the indicated agonist/compound at final concentration of 1 μM. Each 96 well plate contained cells transfected with one GPCR expression vector and each of the examined peptides was tested in triplicate.
(§5) We defined a hit as a peptide which elicited a clear and distinct increase in intracellular calcium that is clearly visible and statistically significant upon examination of the calcium trace for at least two repeats. The criterion for statistical significance was a p-value lower than 0.001 in a t-test comparing the levels of calcium before and after peptide addition.
(§6) Based on dose response experiments, EC50 best fit values were calculated by non-linear regression of sigmoidal dose-response curves, using Prism version 4 (GraphPad Software Inc., San Diego, Calif.). The formulae for the sigmoidal dose-response curves was defined as Y=Bottom+(Top−Bottom)/(1+10^ (LogEC50−X)*HillSlope))
The ability of Peptides to change calcium flux was examined in CHO—K1 cells co-transfected with Mas receptor and Gα16.

FPRL1 = biological target: T2, FPRL1 (Homo sapiens, UniProt P25090); assay: Calcium flux in CHO-K1 cells co-transfected with FPRL1 and Gα16; format: cell-based; parameters: expressed in transfected cells; host or cells: CHO-K1 (ATCC-CCL-61), transient co-transfection; conditions: for ability to induce calcium flux, P33-derived peptides: 0.1, 1, 10, 100, 1000, 10000 nM; for calcium flux, P58 and derivatives: dose response
T2 sequence (P25090 1-351): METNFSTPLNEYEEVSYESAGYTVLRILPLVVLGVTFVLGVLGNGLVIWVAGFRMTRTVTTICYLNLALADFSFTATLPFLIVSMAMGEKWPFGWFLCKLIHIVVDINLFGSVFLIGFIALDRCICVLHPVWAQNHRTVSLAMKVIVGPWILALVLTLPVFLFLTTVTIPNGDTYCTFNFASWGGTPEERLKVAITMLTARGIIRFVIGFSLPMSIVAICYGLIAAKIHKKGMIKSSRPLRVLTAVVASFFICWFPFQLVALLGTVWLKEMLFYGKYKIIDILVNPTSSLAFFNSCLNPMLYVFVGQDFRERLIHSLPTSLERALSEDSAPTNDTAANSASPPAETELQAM
Method: as §1, §2, §3, §4, §5, §6
The ability of Peptides to change calcium flux was examined in CHO—K1 cells co-transfected with FPRL1 and Gal 6.

[1] = test system: aortic rings from Wistar rat; assay: Vasorelaxant activity in phenylephrine pre-contracted aortic rings; conditions: for vasodilator effect in the presence of L-NAME: 100 μM L-NAME, NO synthase inhibitor; for vasodilator effect in the absence of functional endothelium: endothelium-denuded vessels; for Maximal values for the relaxant effect (Emax): mean±SEM
Description: Male Wistar rats of the age of 13-14 weeks (body weight: 250 to 300 g) were used. The rats were exposed to light-dark cycle of 12 hs (day—06:00 to 18:00; night—18:00 to 06:00) controlled by timer. Rats were killed by decapitation and exsanguination and tissues were rapidly removed.
Rings (3-4 mm) from the descending thoracic aorta, free of adipose and connective tissue, were set up in gassed (95% O2 and 5% CO2) Krebs-Henseleit solution (mmol/L): NaCl 110.8, KCl 5.9, NaHCO3 25.0, MgSO4 1.07, CaCl2 2.49, NaH2PO4 2.33 and glucose 11.51, at 37° C., under a tension of 1.0 g, for 1 hour to equilibrate. The presence of functional endothelium was assessed by the ability of Acetylcholine (1 μM) to induce more than 70% relaxation of vessels pre-contracted with phenylephrine (0.3 μM) (Lemos et al., 2005). When necessary, the endothelium was removed by rubbing the intimal surface with a wooden stick. Mechanical activity, recorded isometrically by a force transducer (Panlab, model number TR1210, Spain), was fed to an amplifier-recorder (Powerlab 4/20, ADInstruments, Inc.) and to a personal computer equipped with an analogue-to-digital converter board (AD16JR; World Precision Instruments, Inc.), using CVMS data acquisition/recording software (World Precision Instruments, Inc.).
The vasorelaxant activity of peptides —P61_S (SEQ ID NO:10), P61 (SEQ ID NO.9)-dimer (P61_D), P33_V (SEQ ID NO:7) and P33 (SEQ ID NO:6)-dimer (P33_D) were measured in vessels (N=5-8) with or without functional endothelium pre-contracted to the same tension level (approximately 1.5 g of tension) induced by submaximal concentrations of phenylephrine (0.01 μM). For comparison, the effect of Ang-(1-7) was also tested (N=4)
P61_S (SEQ ID NO:10), P61 (SEQ ID NO9)-dimer (P61_D), P33_V (SEQ ID NO:7) or P33 (SEQ ID NO:6)-dimer (P33_D) were added in increasing cumulative concentrations (0.0001 to 1 μM) once the response to phenylephrine had stabilized (FIG. 28). In order to verify the participation of endothelium-derived products in the relaxant effect of peptides, experiments were performed in the presence of 100 μM N′-Nitro-L-Arginine Methyl Ester-[L-NAME]—a nonselective inhibitor of nitric oxide synthase. In experiments performed in the presence of L-NAME, vessels were pre-contracted with 0.03 μM of phenylephrine, to achieve the same tension level as the others. L-NAME was added to the bath 20 min prior to the addition of phenylephrine.
Results are presented as mean±SEM. Two-way analysis of variance (ANOVA) with Bonferroni multiple comparison post-test was used to compare concentration response curves obtained in aortic rings. The vasodilator effect of P61_S (SEQ ID NO:10), P61 (SEQ ID N09)-dimer (P61_D), P33_V (SEQ ID NO:7), P33 (SEQ ID NO:6)-dimer (P33_D) and Ang-(1-7) were expressed as percentage decrease in maximal contraction induced by phenylephrine. All statistical analyses were considered significant when p<0.05.

[2] = vessels with endothelium, 0.0001 to 1 μM cumulative

Substance: AVLFPAAHRP (listed as Homo sapiens) [P33—5]
ability to induce calcium flux, P33 monomer, dimer and derivatives compared (Mas receptor): no activity
ability to induce calcium flux, P33-derived peptides (FPRL1): failed to induce calcium flux

Substance: Angiotensin 1-7 [Ang-(1-7), reference compound]
Ca response (Mas receptor; dose response experiment, data not shown): did not induce Ca response
vasodilator effect in the presence of L-NAME [1]: completely inhibited
vasodilator effect in the absence of functional endothelium [1]: abolished
Maximal values for the relaxant effect (Emax) [1, 2]: 15.64±1.91%
Maximal values for the relaxant effect (Emax) ([1]; vessels without endothelium): 2.82±3.11%

Substance: HRWSRAVLFPAAHRP (listed as Homo sapiens) [P33—9]
ability to induce calcium flux, P33 monomer, dimer and derivatives compared (Mas receptor): induced calcium flux, albeit at a somewhat lower degree compared to P33_V
ability to induce calcium flux, P33-derived peptides (FPRL1): failed to induce calcium flux

Substance: RWSRAVLFPAAHRP (listed as Homo sapiens) [P33—8]
ability to induce calcium flux, P33 monomer, dimer and derivatives compared (Mas receptor): induced calcium flux, albeit at a somewhat lower degree compared to P33_V
ability to induce calcium flux, P33-derived peptides (FPRL1): failed to induce calcium flux

Substance: SMCHRWSRAVLFPAAHRP [P33_dimer] (also: dimer via cysteine; listed as Homo sapiens) [Peptide P33_dimer]
ability to induce calcium flux, P33 monomer, dimer and derivatives compared (Mas receptor): superior to the monomeric peptides
vasodilator effect in the presence of L-NAME [1]: completely inhibited
vasodilator effect in the absence of functional endothelium [1]: completely inhibited
Maximal values for the relaxant effect (Emax) [1, 2]: 17.78±3.43%
ability to induce calcium flux, P33-derived peptides (FPRL1): inactive

Substance: TIPMFVPESTS (listed as Homo sapiens) [P58—6]
calcium flux, P58 and derivatives (FPRL1): did not induce calcium flux

Substance: TIPMFVPESTSKLQ (listed as Homo sapiens) [P58—7]
calcium flux, P58 and derivatives (FPRL1): did not induce calcium flux

Substance: TIPMFVPESTSTLQ (listed as Homo sapiens) [P58—12]
calcium flux, P58 and derivatives (FPRL1): did not induce calcium flux

Substance: TIPMFVPESTSTLQKFTSWFM-amide (TIPMFVPESTSTLQKFTSWFM-NH2; listed as Homo sapiens) [P58—10]
calcium flux, P58 and derivatives (FPRL1): elicited calcium flux

Substance: WSRAVLFPAAHRP (listed as Homo sapiens) [P33—10]
ability to induce calcium flux, P33 monomer, dimer and derivatives compared (Mas receptor): induced calcium flux, albeit at a somewhat lower degree compared to P33_V
ability to induce calcium flux, P33-derived peptides (FPRL1): failed to induce calcium flux

Results, then the substance that gave them:

ability to induce calcium flux, P61-related peptides compared (Mas receptor): as potent as P61_S
Substance: FAFLGYSIYLNRKRRGDPAF (listed as Homo sapiens) [P61—11S]

pEC50 (Mas receptor): ≤ 6.30
Substance: FLGYSIYLNRKRRGDPAFKRRLRD [Peptide P61_S]

ability to induce calcium flux, P61-related peptides compared (Mas receptor): somewhat weaker
Substance: IYLNRKRRGDPAFKRRLRD (listed as Homo sapiens) [P61—4]

ability to induce calcium flux, P33 monomer, dimer and derivatives compared (Mas receptor): equally potent
ability to induce calcium flux, P33-derived peptides (FPRL1): similarly potent
Substance: SMCHRWSRAVLFPAAHRP [Peptide P33_mono]

pEC50 (Mas receptor): ≤ 6.00
Substance: SMVHRWSRAVLFPAAHRP [Peptide P33_V, SMVHRWSRAVLFPAAHRP]
